Experimental findings from publication PMC4444329, “Disabling Mitochondrial Peroxide Metabolism via Combinatorial Targeting of Peroxiredoxin 3 as an Effective Therapeutic Approach for Malignant Mesothelioma” (PLoS ONE, 2015) are described below.

Data set [1] deals with the molecule itself. In words: cross-linking; recombinant PRX3 incubated with indicated concentrations of thiostrepton (TS) for 30 min; reducing SDS-PAGE, immunoblot with anti-PRX3 antibody.
Data set [2] deals with the molecule itself. Description: cross-linking; EE Mut cycled with and without TS as in the in vitro assay, treated with DTT, exchanged into 25 mM ammonium bicarbonate; intact mass by ESI-TOF MS.
Data set [3] concerns the molecule itself. In words: cross-linking; in vitro PRX3 turnover: 100 μM PRX3, 5 μM E. coli TRX2, 0.5 μM E. coli TR, NADPH regenerating system (or TCEP), 0.2 mM TS or DMSO, 16-18 h at 37°C, successive additions of 100 μM H2O2; reducing SDS-PAGE, GelCode Blue stain.

B1: Human recombinant PRX3 (peroxiredoxin 3), wild type, residues 62-256 (enzyme, UniProt P30048 62-256, looked up)
chain: APAVTQHAPYFKGTAVVNGEFKDLSLDDFKGKYLVLFFYPLDFTFVCPTEIVAFSDKANEFHDVNCEVVAVSVDSHFSHLAWINTPRKNGGLGHMNIALLSDLTKQISRDYGVLLEGSGLALRGLFIIDPNGVIKHLSVNDLPVGRSVEETLRLVKAFQYVETHGEVCPANWTPDSPTIKPSPAASKEYFQKVNQ
notes: peroxiredoxin 3 (PRX3), human, PRDX3 gene residues 62-256, codon optimized, in pET15b; also called rPRX3; WT PRX3; source: E. coli C41 (DE3), purified (nickel-NTA, Q-Sepharose FF, Superdex 200); not shown: His-tag, N-terminal, kept
With B1, the binding result in data set [1] is reported as “binds”.

B2: Engineered dimer of PRX3, S139E/A142E (EE Mut), residues 62-256 (enzyme, human, UniProt P30048 62-256, looked up)
chain: APAVTQHAPYFKGTAVVNGEFKDLSLDDFKGKYLVLFFYPLDFTFVCPTEIVAFSDKANEFHDVNCEVVAVSVDSHFEHLEWINTPRKNGGLGHMNIALLSDLTKQISRDYGVLLEGSGLALRGLFIIDPNGVIKHLSVNDLPVGRSVEETLRLVKAFQYVETHGEVCPANWTPDSPTIKPSPAASKEYFQKVNQ
notes: peroxiredoxin 3 (PRX3), human, PRDX3 gene residues 62-256, two charged residues introduced into the dimer-dimer interface; His-tag removed by digestion with biotinylated thrombin; Measured mass of the reduced monomer 21640.6 amu; also called EE mutant; dimeric variant of PRX3; source: E. coli C41 (DE3), purified (nickel-NTA, Q-Sepharose FF, Superdex 200); not shown: His-tag, N-terminal, cleaved
As to B2, the “stoichiometry N” value in data set [2] was found to be 2.

B3: Human recombinant PRX3 C127S, residues 62-256 (enzyme, UniProt P30048 62-256, looked up)
chain: APAVTQHAPYFKGTAVVNGEFKDLSLDDFKGKYLVLFFYPLDFTFVCPTEIVAFSDKANEFHDVNSEVVAVSVDSHFSHLAWINTPRKNGGLGHMNIALLSDLTKQISRDYGVLLEGSGLALRGLFIIDPNGVIKHLSVNDLPVGRSVEETLRLVKAFQYVETHGEVCPANWTPDSPTIKPSPAASKEYFQKVNQ
notes: peroxiredoxin 3 (PRX3), human, PRDX3 gene residues 62-256, non-catalytic cysteine replaced with serine; also called Cys127 mutant; source: E. coli C41 (DE3), purified (nickel-NTA, Q-Sepharose FF, Superdex 200); not shown: His-tag, N-terminal, kept
With B3, the binding result in data set [3] is on record as “binds”.
